Experimental data taken from the nanobody polyreactivity screen of Harvey et al. (2022).

Assay: yeast display, Sf9 membrane polyspecificity reagent, FACS + sequencing; frameworks hold sequencing errors
Procedure, shortened: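 A nanobody's polyreactivity label depends on the gate it was sorted from. Yeast display cells were stained with 10% biotinylated, detergent-solubilized Sf9 membrane reagent for 1 hour at 4 °C, enriched on streptavidin microbeads and sorted by FACS. The low and high (top ~1%) gates were set on anti-HA fluorescence for expression and streptavidin fluorescence for reagent binding.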

Sequence	polyreactivity (PSR sort gate)
QDQLVESGGGLVQAGGSLRLSCAASGSTLRRYAMGWYRQAPGKERELVAAISGSGDSTYYADSVKGRFTISRDNAKNTVYLQMNSLKPEDTAVYYCNAVYAFNGYDYWGQGTQVTVSS	low polyreactivity
QVQLVESGGGLVQAGGSLRLSCAASGSIFAENAMGCYRQAPGKERELVAAITRSGGSTYYADSVKGRFTISRDNAKNTVYLQMNSLKPEDTAVYYCAAREIASDDWGPDDYWGQGTQVTVSS	low polyreactivity
QVQLVESGGGLVQAGGSLRLSCAASGIIFTYYAMGWYRQAPGKERELVAAISVSGSSTYYADSVKARFTISRDYAKNTVYLQMNRLKPEDTAVYYCAVKQGFYSRALKLYYWGQGTQVTVSS	high polyreactivity
QVQLVESGGGLVQAGCSLRLSCGASGSTFIHYAMGWYRQAPGTERELVAAITWDGSSTYYADSVKGRFTISLDNAKNTVYLQMNSLKPEDTAVYDCATDYAGQYPVDGQAIHDYWGQGTQVTVSS	low polyreactivity
QVQLVESGGGLVQAGGSLRLSCAASGSIFPKNAMGWYRQATGKERELVARISGSGGSTYYADSVKGRFTISRDNAKNTVYLQMNSLKPEDTAVYYCAKDQSKIYSSWSGYYYWGQGTQVTVSS	low polyreactivity
QVQLVESGGGLVQAGGSLRLSCAASGSTFGNYAMGWYRQAPGKERELVAAISTSGGSTYYADSVKRRFTISRDNAKNTVYLQMNSLKPEDTAVYYCAKRLVRVRSRAVSDYYWGQGTQVTVSS	high polyreactivity
QVQLVESGGGLVQAGGSLSLSCAASGSTFNHYAMGWYSPAPGKERELVAAISSRGGSTHYADSVKGRFTISRDNAKNTVYLQMNSLKPEDTAVYDCARDTDPQSSRSSDYDYWGQGTQVTVSS	low polyreactivity
QVQLVESGGGLVQAGGSLRLSCAASGLTITKNVMGWYRQAPGKERELVAVISRSGGSTYYADSVKGRFTISRDNAKNTVYLQMNSLKPEDTAVYYCNVKGPGPSRGNYWGQGTQVTVSS	low polyreactivity
QVQLVESGGGLVQAGGSLRLSCAASGSIFKSYAMGWYRQAPGKERELVAVISDSGSTYYADSVKGRFTISRDNAKNTVYLQKNSLKPEDTAVYYCRGRGRRNEYWGQGTQVTVSS	high polyreactivity
QVHLVESGGGLVQAGGSLRLSCAASGRTFATYALGWYRQAPGKERELVAAISSGGSTYYADSVKGRFTISRDNAKNTVYLQMNSLKPEDTAVYYCAAARKYYGYNYWGQGTQVTVSS	high polyreactivity
QVQLEESGGGLVQAGGSLRLSCAASGSTFGYYAMGWYRQAPGKERELVAAISWSGTRTYYADSVKGRFTISRDNAKNTVYLQMNSLKPEDTAVYYCAAVYRGSYRGSYRFDDSHYDYSGQGTQVTVSS	high polyreactivity
QVQLVESGGGLVQAGGSLRLSCAASGRIFAGYAMGWYRQAPGKERELVAAISKRGGSTYYADSVKGRFTISRDKAKNTVYLQMNSLKPEDTAVYYCAADTGYPNGQGQGYQNFGGYYWGQGTQVTVSS	high polyreactivity
QVQLVESGGGLVQAGGSLRLSCAASGFIFRYYAMGWYRQAPGKERELVAAISRSGGSTYYADSVKGRFTISRDNAKNTVYLQMNSLKPEDTAVYYCAALQSRSWYQFNYWGQGTQVTVSS	high polyreactivity
QVQLVESGGGLVQAGGSLRLSCAASGRIFSDNAMGWYREAPGKERELVAAITWSSGSTYADSVKGRFTISRDNAKNTVYLQMNSLKPEDTAVYYCNVSPGYEPLDHELDYWGQGTQVTVSS	low polyreactivity
QVQLVESGGGLVQAGGSLRLSCAASGITLWQYAMGWYRQAPGKERELVAGITDTGDSTYYADSVKGRFTISRDNAKNTVYLQMNSLKPEDTAVYYCAVPRSALLRAPYELYSWGQGTQVTVSS	low polyreactivity
QVQLVESGGGLVQAGGILRLSCAASGRTFQGNAMGWSRQAPGKERELVAVIDSGTSTDYADSVKGRFTISRDNAKNTVYLQMNSLKPEDTAVYYCAADGALGYNLRYDYWGQGTQVTVSS	low polyreactivity
QVQLVESGGGLVQAGGSLRLSCPASGRTFNWNAMGWYRKAPGKERELVADISIRGGSTNYADSVKGRFTISRDNAKNTVYLQMNSLKPEDTAVYYCAAEYYDSGNDYWGQGTQVTVSS	low polyreactivity
QVQLVESGGGLVQAGGSLRLSCAASGRISLGNAMGWYRQAPGKERELVAVITRGGRTSYADSVKGRFTISRDNAKNTVYLQMNSLKPEDTAVYYCAAESPVYHLVTYDYWGQGTQVTVSS	high polyreactivity
QVQLVESGGGLVQAGGSLRLSCAASGNTFYGYAMGWNRQAPGKERELVASITLSGDSTYYADSVKGRFTISRDNEKNTVYLQMNSLKPEDTAVYDCAGVYTYPLGYYHYTYDYWGQGTQVTVSS	low polyreactivity
QVQLVESGGGLVQAGGSLRLSCAASGSTFPGNAMGWYRQAPGKERELVAAIRDRGTSTYYADSVKGRFTISRDNAKNTVYLQMNSLNPEDTAVYYCAARSFTADLGYYWGQGTQVTVSS	high polyreactivity
QVQHVESGGGIVQAGGSLRLSCAASGSIFVRYAMGWYRQAPGKERESVAAISASGSSTYYADSVKGRFTISRDNAKNTVYLQMNSLKPEDTADYYCNAVRARRFDYWGQGTQVTVSS	high polyreactivity
QVQLVESGGGLVQAGGSLRLSCAASGFIFVPYAMGWYRQAPGKERELVAAIDTSGGNTYADSVKGRFTISRDNAKNTVYLQMNSLKPEDTAVYYCAARYQWDWRDYYYWGQGTQVTVSS	low polyreactivity

Sequence	polyreactivity (PSR sort gate)
QVQLVESGGGLVQAGGSLRLSCAASGGTFGRNVMGWYRQAPGKERELVAAISIRGGSTYYADSVKGRCTISRDNAKNTVYLQMNSLKAEDTAVYYCARDYPTDAYDYWGQGTQVTVSS	low polyreactivity
QVQLEESGGGLVQAGGRLRLSCAASGIIFGYYAIGWYRQAPGKERELVAAISSGGTTSYADSVKGRFTISRDNAKNTVYLQMNSLKPEDTSVYYCSARDWYDGFYYWGQGTQVTVSS	low polyreactivity
QVQLVESGGGLVQAGGSLRLICAASGRTFWNYAMGWYRQAPGKERELVAVIRFSDGSTYYADSVKGRFTISRDNAKNTVYLQMNSLKPEDTAVYYCAAKGPRRWGSGFDYWGQGTQVTVSS	low polyreactivity
QVQLVESGGGLVQAGGSLRLSCSATGNTLDVNARGWYRQAPGKERELVAAITSGGSTNYADSVKVRFTISRDNAKNTVYLQMNSLKPEDTAVYYCAATAALGRPEYYWGQGSQVTVSS	low polyreactivity
QVQLVESGGGLVQSGGSLRLSWAASGSIFVTYAMRCYRPAPGKERELVAAINSGGRTNYADSVKGRFTISRDNAMNTVFLNMNSMKPEDTAVYYCAATGRYFDPYYRYDYWGQGTQVTVSS	low polyreactivity
QVQLVESGGGLVQAGGSLRLSCAASGLIFSYYVMGWYRQAHGKERELVAAISRRGGSTYYADSVKGRFTISRDNAKNTVYLQMNSLKPEDTAVYYCNAQRNFKSITEYDYWGQGTQVTVSS	high polyreactivity
QVQLVESGGGLVQAGGSLRLSCAASGRTFPGYTMGWSRQAPGKERELVAAISYSGGSTYYADSVKGRFTISRDNAKNTVYLQMYSLKPEDTAVYYCAAAYDRQRRYSWVGERYYWGQGTQVTVSS	high polyreactivity
QVQLVESGGGLVQAGGSLRLSCAASGITFSWNAMGRYRQAPGKERELVASITENTGCTYYADSVKGRFTISRDNAKNTVYLQMNSLKPEDTAVDYCWYTQNTLGNYWGQGTQVTVSS	low polyreactivity
QVQLVESGGGLFQAGGSLRLSCAASGSTIWSYAMGWYRQAPGKERELVASITWSGGSTYADSVKGRFTISRDNAKNTVYFQMNRLKPEDTAVYYCARESTLTYYSDDFDYWGQGTQVTVSS	low polyreactivity
QVQLVESGGGLVQAGGILRLSCAASGRTFNSNAMGWYRQAPGKERELVAAITGGGGRTYYADSVKGRFTISRDNAKNTVYLQMNSVKPEDTAVYYCYAARWYRGYDYWGQVTQVTVSS	high polyreactivity
QVQLVESGGGLVQAGGSLRLTSAASGRIFSHNAMGWCRPAPGKERELVAAITVGGGSTFYADSVKGRFTISRDNAKNTVYLQMNSLKPEDTAVYYCAADYYTQWQTRYDYWGQGTQVTVSS	low polyreactivity
QVQIVESVGGLVQAGGSLRLSCAASGSTFSGYAKGWYRQAPGKERELVAAISWRGVRTYYADSVKGRFTISRDNAKNTVYLQMNSLKPEDTAVYYCAAVRYIPKEFYWGQGTQVTVSS	high polyreactivity
QVQLVESGAGLVKAGGSLRLSCASSGRILDFYDMGWYRQAPGKERELVAAITSGTSTYYADSVKGRFTISRDNAKYTVYLQMNSLKPEDTAVYYCAAAHVPVGQYVYWYDYWGQGTQVTVSS	low polyreactivity
QVQLVESGGGLVQAGGSLRLSCAASGNIFRVYDMGWYRQAPGKERELVATITSGGRTYYADSVKGRFTISRDNAKNTVYLQMNSLKPEDTAVYYCNVDVKGRPTFWSPFGRFDYWGQGTQVTVSS	high polyreactivity
QVQLVDSGGCLFQAGGTLRLSCAASGFTLRAYAMGWYRQGPGKEREFVAVISRSDGSTYYADTVKGRFTISRENAKNTVYLQMNSLKPEDSAVYYCADKHRGAKYDYWGQGTQVTVSS	low polyreactivity
QVQLVESGGGLVQAGGSLRLSCAASGSIFGAYAMGWYRQAPGKERELVAAISGSGTSTYYADSVKGRFTISRDNAKNTVYLQMNSLKPDDTAVYYCATAKLTWRSQGLDYWGQGTQVTVSS	low polyreactivity
QVQLVESGGGLVQAGGSLRLSCAASGNIFWSNAMGWYRQAPGKERELVAGITSSTGSTYYADSVKGRFTISRDNAKNTVYLQMNSLKPEDTAVYSCAARYRYYPVTTRGYYWGQGTQVTVSS	high polyreactivity
QVQLVESVGGLVQAGGSLRLSCAASGITFYKYAMGWYRQAPGKERELVASIDRVGITNYADSVKGRFTISRDNAKNTVYLQMNSLKPEDTAVFYCNADYYRYYSITYGGDYWGQGTQVTVSS	high polyreactivity
QVQLVESGGGLVQAGGSLRLSCAASGLIFNKNSMGWYRQAPGKERELVASNTTTGARTYYADSVKGRFTISRDNAKNTVYLQMNSLKPEDTAFYYCASVHWGWRSITGGVGYDSWGQGTQVTVSS	high polyreactivity
QDQLVESGGGLVQAGGSLRLSCAASGFNFDSYAMRWYIQAPGKERELVAAMSWSGSSTYSADSVKGRFTISRDNAKNTGYLQMNSLKPEDTAVYYCAALVYPYWGGSMYYWGQGTQVTVSS	high polyreactivity
QVQLVESGGGLVQAGGRLLLSCAASGLTFYEYAMGWYRQAHGKERELVADIDFNGGSTSYAYSVKGRFTISRDNAKNTVYLQMNSLKPEDTAVYYCNTRDRGDVVTGLDYSGQGTQVTVSS	low polyreactivity
